B1: ETS translocation variant 1 (Homo sapiens), P50549-1 (parent)
chain: MDGFYDQQVPYMVTNSQRGRNCNEKPTNVRKRKFINRDLAHDSEELFQDLSQLQETWLAEAQVPDNDEQFVPDYQAESLAFHGLPLKIKKEPHSPCSEISSACSQEQPFKFSYGEKCLYNVSAYDQKPQVGMRPSNPPTPSSTPVSPLHHASPNSTHTPKPDRAFPAHLPPSQSIPDSSYPMDHRFRRQLSEPCNSFPPLPTMPREGRPMYQRQMSEPNIPFPPQGFKQEYHDPVYEHNTMVGSAASQSFPPPLMIKQEPRDFAYDSEVPSCHSIYMRQEGFLAHPSRTEGCMFEKGPRQFYDDTCVVPEKFDGDIKQEPGMYREGPTYQRRGSLQLWQFLVALLDDPSNSHFIAWTGRGMEFKLIEPEEVARRWGIQKNRPAMNYDKLSRSLRYYYEKGIMQKVAGERYVYKFVCDPEALFSMAFPDNQRPLLKTDMERHINEEDTVPLSHFDESMAYMPEGGCCNPHPYNEGYVY

Variants of: B1
Conditions: with COP1, Q8NHY2-1
Sequence of COP1, Q8NHY2-1 (Q8NHY2 whole entry): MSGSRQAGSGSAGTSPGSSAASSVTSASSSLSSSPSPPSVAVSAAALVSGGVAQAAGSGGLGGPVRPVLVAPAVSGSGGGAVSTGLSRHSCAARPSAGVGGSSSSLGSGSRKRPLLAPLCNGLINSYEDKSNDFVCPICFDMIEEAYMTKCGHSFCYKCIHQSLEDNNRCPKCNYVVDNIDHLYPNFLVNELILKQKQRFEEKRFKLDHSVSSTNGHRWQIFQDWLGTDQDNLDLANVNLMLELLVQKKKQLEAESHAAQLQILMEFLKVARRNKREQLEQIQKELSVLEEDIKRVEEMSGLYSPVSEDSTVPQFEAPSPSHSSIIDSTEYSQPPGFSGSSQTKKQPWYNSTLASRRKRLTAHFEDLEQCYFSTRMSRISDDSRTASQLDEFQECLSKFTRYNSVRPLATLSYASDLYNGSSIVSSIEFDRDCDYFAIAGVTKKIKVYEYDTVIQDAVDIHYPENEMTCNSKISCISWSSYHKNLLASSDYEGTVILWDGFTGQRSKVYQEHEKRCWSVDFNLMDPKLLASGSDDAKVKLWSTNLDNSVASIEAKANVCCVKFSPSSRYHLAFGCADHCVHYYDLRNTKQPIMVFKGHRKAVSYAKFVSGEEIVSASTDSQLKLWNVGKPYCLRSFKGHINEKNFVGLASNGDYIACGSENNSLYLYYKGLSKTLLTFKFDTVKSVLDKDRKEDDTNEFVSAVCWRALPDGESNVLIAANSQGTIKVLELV

Variant	effect of a mutation on the interaction
V71A;P72A	decreasing interaction
V63A;P64A;V71A;P72A	decreasing interaction
